Reference: US20230002466A1 (ELPIS BIOPHARMACEUTICALS, published 2023)

T1: human IL2Rβ (human, UniProt P14784 27-239)
T1 construct: also called IL2β; CD122
T1 sequence (looked up): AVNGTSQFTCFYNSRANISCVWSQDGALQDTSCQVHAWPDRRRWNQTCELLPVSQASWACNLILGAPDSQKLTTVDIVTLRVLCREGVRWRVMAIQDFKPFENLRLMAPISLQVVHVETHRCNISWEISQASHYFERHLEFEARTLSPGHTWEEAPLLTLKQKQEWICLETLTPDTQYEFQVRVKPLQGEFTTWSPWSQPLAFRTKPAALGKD

T2: human IL2Rβ Fc fusion protein (human, UniProt P14784 27-239)
T2 construct: also called Recombinant Fc-tagged human IL2Rβ; not shown: Fc
T2 sequence (looked up): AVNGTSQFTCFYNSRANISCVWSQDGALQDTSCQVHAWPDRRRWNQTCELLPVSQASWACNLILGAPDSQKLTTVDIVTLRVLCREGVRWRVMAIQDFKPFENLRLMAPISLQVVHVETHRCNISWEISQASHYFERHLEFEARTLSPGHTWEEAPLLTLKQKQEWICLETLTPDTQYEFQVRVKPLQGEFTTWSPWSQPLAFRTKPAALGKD

T3: human IL2Rα (human, UniProt P01589 22-213, limits assumed)
T3 construct: also called IL2α; CD25
T3 sequence (looked up): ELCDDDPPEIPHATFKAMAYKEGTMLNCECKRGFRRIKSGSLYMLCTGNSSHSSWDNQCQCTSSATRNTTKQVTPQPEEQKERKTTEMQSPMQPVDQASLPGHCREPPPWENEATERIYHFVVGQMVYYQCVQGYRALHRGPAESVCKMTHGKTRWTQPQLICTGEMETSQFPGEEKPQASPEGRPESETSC

T4: human IL2Rα Fc fusion protein (human, UniProt P01589 22-213, limits assumed)
T4 construct: also called Recombinant Fc-tagged human IL2Rα; not shown: Fc
T4 sequence (looked up): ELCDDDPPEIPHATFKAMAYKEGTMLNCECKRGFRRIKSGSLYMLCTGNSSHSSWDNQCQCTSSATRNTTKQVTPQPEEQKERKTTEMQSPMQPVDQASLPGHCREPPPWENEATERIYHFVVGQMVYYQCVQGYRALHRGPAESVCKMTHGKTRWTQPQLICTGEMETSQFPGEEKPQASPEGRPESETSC


Columns and labels:
[1] = biological target: T1, human IL2Rβ; assay: SPR, receptor captured on Protein A chip, E. coli-produced IL2
Description: The assay was run with Biacore T200 control software version 2.0. For each cycle, 1 μg/mL of human IL2Rβ or IL2Rα was captured for 60 seconds at flow rate of 10 μL/min on flow cell 2 in 1×HBST buffer on Protein A sensor chip. Two-fold serial diluted HIS tag purified engineered IL2 mutant was injected onto both reference flow cell 1 and IL2Rβ or IL2Rα captured flow cell 2 for 150 seconds at flow rate of 30 μL/min followed by washing for 300 seconds. The flow cells were then regenerated with Glycine pH 2 for 40 seconds at a flow rate of 30 μL/mins. Eight concentration points from 0 to 100 nM were assayed for each IL2Rβ agonist clone 96-well plate format. The kinetics data was analyzed with Biacore T200 evaluation software 3000. The specific binding response unit was derived from subtraction of binding to reference flow cell 1 from target flow cell 2.

[2] = biological target: T2, human IL2Rβ Fc fusion protein; assay: ELISA, Fc-tagged receptor coated, anti-HisTag-HRP
Description: Recombinant Fc-tagged human IL2Rα and IL2Rβ were added in 25 uL of 1×PBS to wells of 384-well plate and incubated overnight at 4° C. to coat the plates. Plates were washed three times with 0.05% Tween20/1×PBS. Plates were blocked with 100 uL of SuperBlock for 1 hr at RT and then washed 3 times with 0.05% Tween20/1×PBS. IL2 mutants were diluted in 0.05% Tween 20/1×PBS from 1000 nM to 0 nM and added to plates for 2 hrs at room temperature. Plates were then washed 6 times with 0.05% Tween20/1×PBS. Anti-HisTag-HRP was diluted 1:5000 in 0.05% Tween20/1×PBS and added to plates for 1 hr at RT. Plates were then washed 6 times with 0.05% Tween 20/1×PBS, and TMB was added to develop blue color. Reactions were stopped with 2N […] and light absorbance at 450 nm was read on a BioTek plate reader.

[3] = biological target: T3, human IL2Rα; assay: SPR, IL2Rα captured on Protein A chip, IL2 at 100 nM
Description: The binding kinetics of IL2Rα-reduced binding clones to IL2Rα was assessed utilizing SPR technology with a Biacore T200, software version 2.0. For each cycle, 1 ug/mL of human IL2Rα was captured for 60 seconds at a flow rate of 10 uL/min on flow cell 2 in 1×HBSP buffer on a Protein A sensor chip. 100 nM of each HIS and Flag tag purified IL2 mutant was injected onto both the reference flow cell 1 and IL2Rα captured flow cell 2 for 150 seconds at a flow rate of 30 uL/min followed by washing for 300 seconds. The flow cells were then regenerated with Glycine pH 2.0 for 60 seconds at a flow rate of 30 uL/min. A HBSP+ buffer was included with each sample as a baseline control. The assay was set up in a 96-well format. The kinetics data was analyzed with Biacore T200 evaluation software 3.0. The specific binding response unit was derived from subtraction of binding to reference flow cell 1 from IL2Rα flow cell 2 and subtraction of buffer control. […] Relative response (RU) was determined for each IL2Rα-reduced binding clone (FIG. 4, Table 3).

[4] = biological target: T4, human IL2Rα Fc fusion protein; assay: ELISA, receptor-Fc coated, anti-Flag HRP
Description: (§1) Briefly, 384 well plate was immobilized with human IL2Rα and IL2Rβ Fc fusion proteins at a final concentration of 2 ug/mL in 1×PBS in total volume of 25 uL per well. The plate was incubated overnight at 4 C and blocked with 80 uL of superblock per well for 1 hour. […] Each dilution was added to IL2Rα or IL2Rβ wells in parallel in duplicates. The IL2 mutant binding was detected by adding 25 uL of anti-Flag HRP diluted at 1:5000 in 1×PBST. In between each step, the plate was washed three times with 1×PBST using a plate washer. The plate was then developed with 25 uL of TMB substrate for five minutes and stopped by adding 25 ul of 2N sulfuric acid. The plate was read at OD450 nm Biotek plate reader and the EC50 was analyzed with Prism 8.1 software to generate EC50 values (FIG. 15A for IL2Rα, and FIG. 15B for IL2Rβ, summarized in Table 9).

[5] = biological target: T2, human IL2Rβ Fc fusion protein; assay: ELISA, receptor-Fc coated, anti-Flag HRP
Description: as §1

Row | Binder | RU (at 100 nM) [3] [RU] | Relevant binding to WT IL2 (%) [3] [%] | EC50 [4] [nM] | EC50 [5] [nM] | further results
1 | EP007 (ligand, not shown: C-terminal Flag and 6xHis tags) APTSSSTKKTQLQLEHLLLDLQMILNGINNYKNPKLTRMLTFKFYMPKKATELKHLQCLEEELKPLEEVLNLAQSKNFHLKWGDAVSNARVLAGALKGSETTFMCEYADETATIVEFLNRWITFCQSIISTLT | – | – | – | – | Kd [1]: 0.37 nM; koff [1]: 0.000263 s⁻¹; kon [1]: 709000 M⁻¹ s⁻¹; relative activity IL2Rβ (KD: fold) against WT IL2 [1]: 11700 fold
2 | EP350 (ligand, not shown: His and Flag tags) APTSSSTKKTQLQLEHLLLDLQMILNGINNYKNPKLTRMLTAKFYMPKKATELKHLQCLEEELKPLEEVLNLAQSKNFHLTARDAISNINVIIQELKGSETTFMCEYADETATIVEFLNRWITFCQSIISTLT | – | – | – | – | EC50 [2]: 39.9 nM
3 | EP110 (ligand, not shown: His and Flag tags) APTSSSTKKTQLQLEHLLLDLQMILNGINNYKNPLLTDMLTRKFYMPKKATELKHLQCLEEELKPLEEVLNLAQSKNFHLRPRDLISNINVIVLELKGSETTFMCEYADETATIVEFLNRWITFCQSIISTLT | 2.6 | 1.83 | – | – | –
4 | EP257 (ligand, not shown: His and Flag tags) APTSSSTKKTQLQLEHLLLDLQMILNGINNYKNPKLTRMLTFKFYMPKKATELKHLQCLEEELKPLEEVLNLAQSKNFHLTARDLIDNIRVIILELKGSETTFMCEYADETATIVEFLNRWITFCQSIISTLT | – | – | 5.6 | – | –
5 | EP101 (ligand) APTSSSTKKTQLQLEHLLLDLQMILNGINNYKNPKLTRMLTLKFPMPKKATELKHLQCLEEELKPLEEVLNLAQSKNFHLRPRDLISNINVIVLELKGSETTFMCEYADETATIVEFLNRWITFSQSIISTLT | 2.5 | 1.76 | – | – | –
6 | EP249 (ligand, not shown: His and Flag tags) APTSSSTKKTQLQLEHLLLDLQMILNGINNYKNPKLTRMLTFKFYMPKKATELKHLQCLEEELKPLEEVLNLAQSKNFHLTPRDLIDNIRVIIQELKGSETTFMCEYADETATIVEFLNRWITFCQSIISTLT | – | – | 20.2 | 576 | –
7 | EP243 (ligand, not shown: His and Flag tags) APTSSSTKKTQLQLEHLLLDLQMILNGINNYKNPKLTRMLTFKFYMPKKATELKHLQCLEEELKPLEEVLNLAQSKNFHLRPRDAIDNIRVIIQELKGSETTFMCEYADETATIVEFLNRWITFCQSIISTLT | – | – | 6.7 | 217 | –
8 | EP245 (ligand, not shown: His and Flag tags) APTSSSTKKTQLQLEHLLLDLQMILNGINNYKNPKLTRMLTFKFYMPKKATELKHLQCLEEELKPLEEVLNLAQSKNFHLRARDAISNIRVIIQELKGSETTFMCEYADETATIVEFLNRWITFCQSIISTLT | – | – | 4.8 | 123 | –
9 | EP347 (ligand, not shown: His and Flag tags) APTSSSTKKTQLQLEHLLLDLQMILNGINNYKNPKLTVMLTFKFSMPKKATELKHLQCLEEELKPLEEVLNLAQSKNFHLTPRDAIDNIRVIVQELKGSETTFMCEYADETATIVEFLNRWITFCQSIISTLT | – | – | – | – | EC50 [2]: 77.6 nM
10 | EP250 (ligand, not shown: His and Flag tags) APTSSSTKKTQLQLEHLLLDLQMILNGINNYKNPKLTRMLTFKFYMPKKATELKHLQCLEEELKPLEEVLNLAQSKNFHLTPRDAISNIRVIIQELKGSETTFMCEYADETATIVEFLNRWITFCQSIISTLT | – | – | 13.2 | 23.4 | –
11 | EP100 (ligand) APTSSSTKKTQLQLEHLLLDLQMILNGINNYKNPVLTRMLTIKFYMPKKATELKHLQCLEEELKPLEEVLNLAQSKNFHLRPRDLISNINVIVLELKGSETTFMCEYADETATIVEFLNRWITFSQSIISTLT | 1.7 | 1.19 | – | – | –
12 | EP117 (ligand) APTSSSTKKTQLQLEHLLLDLQMILNGINNYKNPKLTYMLTFKFSMPKKATELKHLQCLEEELKPLEEVLNLAQSKNFHLRPRDLISNINVIVLELKGSETTFMCEYADETATIVEFLNRWITFSQSIISTLT | 2.5 | 1.76 | – | – | –
13 | EP244 (ligand, not shown: His and Flag tags) APTSSSTKKTQLQLEHLLLDLQMILNGINNYKNPKLTRMLTFKFYMPKKATELKHLQCLEEELKPLEEVLNLAQSKNFHLRARDLIDNIRVIIQELKGSETTFMCEYADETATIVEFLNRWITFCQSIISTLT | – | – | 10.2 | 2830 | –

Now from value to binder, other results behind:

Row | RU (at 100 nM) [3] [RU] | Relevant binding to WT IL2 (%) [3] [%] | EC50 [4] [nM] | EC50 [5] [nM] | Binder | further results
14 | – | – | 13.4 | 188 | EP248 (ligand, not shown: His and Flag tags) APTSSSTKKTQLQLEHLLLDLQMILNGINNYKNPKLTRMLTFKFYMPKKATELKHLQCLEEELKPLEEVLNLAQSKNFHLRARDAIDNIRVIILELKGSETTFMCEYADETATIVEFLNRWITFCQSIISTLT | –
15 | 3.6 | 2.54 | – | – | EP120 (ligand) APTSSSTKKTQLQLEHLLLDLQMILNGINNYKNPKLTVMLTFKFTMPKKATELKHLQCLEEELKPLEEVLNLAQSKNFHLRPRDLISNINVIVLELKGSETTFMCEYADETATIVEFLNRWITFSQSIISTLT | –
16 | – | – | 7 | 269 | EP246 (ligand, not shown: His and Flag tags) APTSSSTKKTQLQLEHLLLDLQMILNGINNYKNPKLTRMLTFKFYMPKKATELKHLQCLEEELKPLEEVLNLAQSKNFHLRARDAIDNINVIIQELKGSETTFMCEYADETATIVEFLNRWITFCQSIISTLT | –
17 | 2.7 | 1.9 | – | – | EP102 (ligand, not shown: small tags and cut ends) APTSSSTKKTQLQLEHLLLDLQMILNGINNYKNPDLTSMLAFKFYMPKKATELKHLQCLEEELKPLEEVLNLAQSKNFHLRPRDLISNINVIVLELKGSETTFMCEYADETATIVEFLNRWITFSQSIISTLT | –
18 | 6.1 | 4.29 | – | – | EP125 (ligand) APTSSSTKKTQLQLEHLLLDLQMILNGINNYKNPKLTNMLTFKFAMPKKATELKHLQCLEEELKPLEEVLNLAQSKNFHLRPRDLISNINVIVLELKGSETTFMCEYADETATIVEFLNRWITFSQSIISTLT | –
